Assay results taken from the RNAGym collection of RNA variant scans (doi:10.1073/pnas.2313332121).
Variants at the floor of the assay were thinned out.

B1: TPR 5TU (parent)
chain: GGAUCUUCUCGAUCUAACAAAAAAGACAAAUCUGCCACAAAGCUUGAGAGCAUCUUCGGAUGCAGAGGCGGCAGCCUUCGGUGGCGCGAUAGCGCCAACGUUCUCAACUAUGACACGCAAAACGCGUGCUCCGUUGAAUGGAGUUUAUCAUG

Variants of: B1
Assay: polymerase ribozyme fitness, log enrichment relative to wild type (log ratio); higher = more active; in vitro selection for triplet polymerase activity
In short: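 Mutant libraries of each subunit of a heterodimeric triplet polymerase ribozyme were built by PCR and transcribed. Each library went through one round of in vitro selection in triplicate: annealing with biotinylated primer, partner subunit and triplets, frozen incubation at −7 °C, gel excision of extended constructs, streptavidin-bead capture and RT-PCR. Input and output libraries were Illumina-sequenced; only genotypes with ≥10 input reads and ≥1 read per output were kept. Fitness is log2(genotype enrichment/wild-type enrichment), using inverse-variance-weighted replicate averages.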

| Variant | polymerase ribozyme fitness (log ratio) |
| --- | --- |
| GGAUCUUCUCGCUCUAACAAAAAAUACAAAUCUGCCACAAAGCUUGAGAGGAUCUUCGGAUGCAGAGGCGGGAGCCUUCGGUGGCGCGAUAGCGCCAACGUUCUCAACUAUGACACGGAAAACGCGUGCUCCGUUGAAUGGAGUUUAUCAUG | ≤ -4.2 |
| GGAUCUUCUCGCUCUAACAAAAAAGACAAAUCUGCCACAAAGCUUGAGAGCAUCUUCGGAUGCAGAGGCGGCAGCCUUCGGUGGCGCGAUAGCGCCAACGUUCUCAACUAUGAUACGCAAAACGCGUGCUCCGUUGAAUGGAGUUUAUCAUG | -2.51 |
| GGAUCUUCUCGCUCUAACAAAAAAGACAAAUCUGCCACAAAGCUUGAGAGCAUCUUUGGAUGCAGAGGCGGCAGCGUUCGGUGGCGCGAUAGCGCUAACGUUCUCAACUAUGACACGCAAAACGCGUGCUCCGUUGAAUGGAGUUUAUCAUG | ≤ -4.2 |
| GGAUCUUCUCGCUCUAACAAAAAAGACAAAUCUGCCGCAAAGCUUCAGAGCAUCUUCGGAUGCAGAGGCGGCAGCCUUCGGUGGCGCGAUAGCGCGAACGUUCUCAACUGUGACAUGCAAAACGCGUGCUCCGUGGAAUGGAGUUUAUCAUG | ≤ -4.2 |
| GGAUCUUCUCGCUCUAACAAAAAAGACAAAUCUGCCACAAAGCUUGAGAGCAUCUUCGGAUGCAGAGGCGGCAGCCUUCGGUGGCGCGAUACCGCCAACGUUCUCAACUAUGACACGCAAAACGCGUGCUCCGUUGAAUGGAGUUUAUCAUG | -0.73 |
| GGAUCUUCUCGCUCUAACAAAAAAGACAAAUCUGCCACAAAGCUUGAGAGCAUCUUCGGAUGCAGAGGCGGCAGCCUUCGGUGGCGCGAUAGCGCCAAUGUUCUGAACUAUGACACGCAAAACGCGUGCUCCGUUGAAUGGAGUUUAUCAUG | ≤ -4.2 |
| GGAUCUUCUCGCUAUAACAAAAAAGACAAUUCUGCCACCAAGCUUGAGAGCAUCUUCCGAUGCAGAGGCGGCAGCCUUCGGUCGCGCGAUAGCGCCAACGUUCUCAACUAUGACACGCAAAACUCGUGCUCCGUUGAAUGGAGUUUAUCAUG | ≤ -4.2 |
| GGAUCUUCUCGCUCUAACAAAAAGGACAAAUCUGCCACAAAGCUUGAGAGCCUCUUCGGCUGCAGAGGCGGCAGCCUUCGGUGGCGCGAUAGCGCCAACGUUCUCAACUAUGACACGCAAAACGCGUGCUCCGUUGAAUGGAGUUUAUCAUG | ≤ -4.2 |
| GGAUCUUCUCGCUCUAACAAAAAAUACAAAUCUGCCACAAAGCUUGAGAGCAUCACCGGAUGCAGAGGCGGCAGCCUUCGGUCGCGCGAUAGCGCCAACGUUCUCAACUAUGACACGCAAAACGCGUGCUCCGUUGAAUGGAGUUUAUCAUG | ≤ -4.2 |
| GGAUCUUCUCGCUCUAACAAAAAUGACAAAUCUGCCGCAAAGCUUGAGAGCCUCUUCGGAUGCAGAGGCGGCAGUCUUCGGUGGCGCGAUAGUGCCAACGUUCUCAACUAUGACACGCAAAACGCGUGCUCCGUUGAAUGGAGUUUAUCAUG | ≤ -4.2 |
| GGAUCUUCUCGCUCUAACAAAAAAGACAAAUCUGCCACAAAGCUUUAGAGCAUCUUCGGAUGCAGAGGCGGCAGCCUUCGGUGGCGCGAUAGCGCCAACGUUCUCAACUAUGUCACGUAAAACGCGUGCUCCGUUGAAUGGAGUUUAUCAUG | -3.95 |
| GGAUCUUCUCGCUCUAACAAAAAAGACAAAUCUGCCACAAAGCUUGAGAGCAUCUUCGGAUGCAGAGGCGGCAGCCUUCGGUGGCGCGAUAGAGCCAACGUUCUCAACUAUGACACGCAAAACGCGUGCUCCGUUGAAUGGAGUUUAUCAUG | -2.68 |
| GGAUCUUCUCGCUCUAACAAAAAAGACAAAUCUGCCACAAAGCUUGAGAACAUCUUCGCAUGCAGAGGCGGCAGCCUUCGGUGGCGCGAUAUCGCCAACGUUCUCAACUAUGACACGCAAAACGCGUGCUCCGUUGAAUGGAGUUUAUCAUG | -2.67 |
| GGAUCUUCUCGCUCUAACAAAAAAGACAAAUCUGCCACAAAGCUUGAGAGCCUUUUCGGAUGCAGAGGCGGCAGCCUUCGGUGGCGCGAUAGCGCAAACGUUCUCAACUAUGACACGCAAAACGCGUGCUCCGUUGAAUGGAGUUUAUCAUG | -3.95 |
| GGAUCUUCUCGCUCUAACAAAAAAGACAAAUCUGCCAUAAAGCUUGAGACCAACGUCGGAUGCAGAGGCGUCAGCCUUCGGUGGCGCGAUAUCGCCAACGUUCUCAACUAUGACACGCAAAACGCGUGCUCCGUUGAAUGGAGUUUACCAUG | ≤ -4.2 |
| GGAUCUUCUCGCUCUAACAAAAAAGACAAGUCUGCCAAAAAGCUUGAGAGAAUCUGCGGAUGCAGAGGCGGCAGCCUUCGGUGGGGCGAUAGCGUCAACGUUCUCGACUAAGACACGCAAAACGCGUGCUCCGUUGAAUGGAGUUUAUCAUG | ≤ -4.2 |
| GGAUCUUCUCGCUCUAACAAAAAAGACAAAUCUGUCACAAAGCUUGAGCGCAUCUUCGGAUGCUGAGGCGGCAGCCUUCGGUGGCGCGAUAGCGUCAACGUUCUCAACUAUGACACGCAAAAUGCGUGCUCCGUUGAAUGGAGUUUAUCAUG | ≤ -4.2 |
| GGAUCUUCUCGCUCUAACAAAAAAGACAAAUCUGCCACAAAGCUUGAGAGCAUCUUCGGAUGCUGAGCCGGCAGCCUUCGGUGUCGCGAUAGCGCCAACGUUCUCCACUAUGACACGCAAAACGCGUGCUCCGUUGAAUGGAGUGUAUCAUG | ≤ -4.2 |
| GGAUCUUCUCGCUCUAACAAAAAAGACAAAUCUGCCACAAAGCUUGAGAGCAUUUUCGGAUGCAGAGGCGGCAGCCUUCGGUGGCGCGAUUGCGCCAACGUUCUCAACUAUGACACGCAAAACGCGUGCUCCGUUGAAUGGAGUUUAUCAUG | ≤ -4.2 |
